± gives the standard error. For some of these results: Variants at the floor of the assay were thinned out.
B1: glmS ribozyme (parent)
chain: AUAAAAGCGCCAGAACUACAGAAAUGUAGUUGACGAGGAGGAGGUUUAUCGAAUUUUCGGCGGAUGCCUCCAAA

Assays:
Settings in all cases: with glucosamine-6-phosphate
glucosamine-6-phosphate [1] = variants of: B1; assay: kcat; higher = faster cleavage; RNA array
Procedure, shortened: (§1)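 Barcoded ribozyme variants, transcribed in situ by E. coli RNA polymerase on sequenced MiSeq chips, were followed via a hybridised Cy3 probe at 37 °C. Glucosamine-6-phosphate ranged from 40 μM to 10 mM in HEPES/KCl/Mg(OAc)2 buffer. kobs came from decay fits to per-tile medians, and kcat and KM from weighted Michaelis–Menten fits.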

glucosamine-6-phosphate [2] = variants of: B1; assay: self-cleavage kobs at 2500 uM GlcN6P; higher = faster cleavage; RNA array
Procedure, shortened: as §1

glucosamine-6-phosphate [3] = variants of: B1; assay: self-cleavage kobs at 40 uM GlcN6P; higher = faster cleavage; RNA array
Procedure, shortened: as §1

glucosamine-6-phosphate [4] = variants of: B1; assay: self-cleavage kobs at 10000 uM GlcN6P; higher = faster cleavage; RNA array
Procedure, shortened: as §1

glucosamine-6-phosphate [5] = variants of: B1; assay: KM; higher = weaker cofactor use; RNA array
Procedure, shortened: as §1

glucosamine-6-phosphate [6] = variants of: B1; assay: self-cleavage kobs at 640 uM GlcN6P; higher = faster cleavage; RNA array
Procedure, shortened: as §1

glucosamine-6-phosphate [7] = variants of: B1; assay: self-cleavage kobs at 160 uM GlcN6P; higher = faster cleavage; RNA array
Procedure, shortened: as §1

| Variant | kcat (glucosamine-6-phosphate [1]) | self-cleavage kobs at 2500 uM GlcN6P (glucosamine-6-phosphate [2]) | self-cleavage kobs at 40 uM GlcN6P (glucosamine-6-phosphate [3]) | self-cleavage kobs at 10000 uM GlcN6P (glucosamine-6-phosphate [4]) | KM (glucosamine-6-phosphate [5]) | self-cleavage kobs at 640 uM GlcN6P (glucosamine-6-phosphate [6]) | self-cleavage kobs at 160 uM GlcN6P (glucosamine-6-phosphate [7]) |
| --- | --- | --- | --- | --- | --- | --- | --- |
| G38U G51A | < 1e-05 s⁻¹ | < 1e-05 s⁻¹ |  |  |  |  |  |
| A33G C58U |  | < 1e-05 s⁻¹ | < 1e-05 s⁻¹ | < 1e-05 s⁻¹ |  |  |  |
| A12G C70A | 0.000118 ± 8.6e-06 s⁻¹ | 7.34e-05 ± 1.3e-05 s⁻¹ |  | 0.000108 ± 9.4e-06 s⁻¹ | 1110 ± 270 µM | 4.35e-05 ± 7.9e-06 s⁻¹ |  |
| U31G G51C |  |  |  |  | 210 ± 61 µM |  |  |
| U30G U46G | 0.00267 ± 0.0006 s⁻¹ | 0.00112 ± 0.00015 s⁻¹ | 4.16e-05 ± 1.4e-05 s⁻¹ | 0.00181 ± 0.00038 s⁻¹ | 3990 ± 1200 µM | 0.000333 ± 4.9e-05 s⁻¹ | 0.000105 ± 2.3e-05 s⁻¹ |
| G44C C50A |  |  |  |  | 105 ± 18 µM |  |  |
| G7A U69G |  |  | 0.000261 ± 4.3e-05 s⁻¹ | 0.000569 ± 0.00011 s⁻¹ |  | 7.58e-05 ± 3.5e-05 s⁻¹ |  |
| U47G U56G C61U C67G C70U |  |  | 0.000123 ± 6.1e-05 s⁻¹ | 4.99e-05 ± 1.9e-05 s⁻¹ |  | 0.000281 ± 8.9e-05 s⁻¹ |  |
| C11U A15C A48U G60A |  |  | < 1e-05 s⁻¹ | < 1e-05 s⁻¹ |  |  |  |
| A14U G60U |  | < 1e-05 s⁻¹ | < 1e-05 s⁻¹ | < 1e-05 s⁻¹ |  | < 1e-05 s⁻¹ | < 1e-05 s⁻¹ |
| G7U U57A |  |  | < 1e-05 s⁻¹ | < 1e-05 s⁻¹ |  | < 1e-05 s⁻¹ | < 1e-05 s⁻¹ |
| A12G G41U A52G U54A |  |  | < 1e-05 s⁻¹ |  |  |  |  |
| A33U U54A C68A | 2.8e-05 ± 3.4e-06 s⁻¹ |  |  |  |  |  |  |
| C16G U31C U45C |  |  | < 1e-05 s⁻¹ |  |  |  |  |
| G29C U31C G37A C67A |  | < 1e-05 s⁻¹ | < 1e-05 s⁻¹ | < 1e-05 s⁻¹ |  |  |  |
| A15G A39C C61U G63C C68G |  |  | < 1e-05 s⁻¹ |  |  | < 1e-05 s⁻¹ |  |
| C8G U45G U47G C58U G66U C71U |  |  | < 1e-05 s⁻¹ |  |  |  |  |
| A42G U55C |  | 0.0354 ± 0.016 s⁻¹ | 0.000832 ± 0.00014 s⁻¹ | 0.0147 ± 0.0029 s⁻¹ | 895 ± 430 µM | 0.0147 ± 0.0051 s⁻¹ | 0.00147 ± 0.00063 s⁻¹ |
| A14G C34G |  |  | < 1e-05 s⁻¹ | < 1e-05 s⁻¹ |  |  | < 1e-05 s⁻¹ |
| C8U U65C |  | < 1e-05 s⁻¹ | < 1e-05 s⁻¹ |  |  | < 1e-05 s⁻¹ |  |
| A12U G44C | 0.000244 ± 2.8e-05 s⁻¹ | 0.000168 ± 2.9e-05 s⁻¹ |  | 0.000195 ± 2.3e-05 s⁻¹ | 2040 ± 560 µM | 5.33e-05 ± 1.1e-05 s⁻¹ |  |

| Variant | kcat (glucosamine-6-phosphate [1]) | self-cleavage kobs at 2500 uM GlcN6P (glucosamine-6-phosphate [2]) | self-cleavage kobs at 40 uM GlcN6P (glucosamine-6-phosphate [3]) | self-cleavage kobs at 10000 uM GlcN6P (glucosamine-6-phosphate [4]) | KM (glucosamine-6-phosphate [5]) | self-cleavage kobs at 640 uM GlcN6P (glucosamine-6-phosphate [6]) | self-cleavage kobs at 160 uM GlcN6P (glucosamine-6-phosphate [7]) |
| --- | --- | --- | --- | --- | --- | --- | --- |
| A15C U56G |  | 0.0011 ± 0.00025 s⁻¹ | 6.11e-05 ± 1.3e-05 s⁻¹ | 0.00228 ± 0.00048 s⁻¹ |  | 0.000276 ± 8.7e-05 s⁻¹ | 7.19e-05 ± 1.9e-05 s⁻¹ |
| U31A G37C U69G |  |  | < 1e-05 s⁻¹ |  |  |  |  |
| A36C C61U |  |  |  |  | 44.5 ± 18 µM |  |  |
| A6C G62A |  |  | < 1e-05 s⁻¹ |  |  | < 1e-05 s⁻¹ | < 1e-05 s⁻¹ |
| A52U G59A |  | < 1e-05 s⁻¹ | < 1e-05 s⁻¹ | < 1e-05 s⁻¹ |  | < 1e-05 s⁻¹ | < 1e-05 s⁻¹ |
| A12U G29A U56C |  | 0.0018 ± 0.00058 s⁻¹ | 0.000118 ± 2.9e-05 s⁻¹ |  |  | 0.000685 ± 0.00022 s⁻¹ |  |
| G41U U46G C67U |  |  | < 1e-05 s⁻¹ |  |  | < 1e-05 s⁻¹ | < 1e-05 s⁻¹ |
| A52G G63C |  |  | < 1e-05 s⁻¹ |  |  |  |  |
| G7C G13C G63U C70G |  | < 1e-05 s⁻¹ | < 1e-05 s⁻¹ | < 1e-05 s⁻¹ |  | < 1e-05 s⁻¹ |  |
| G66A C68G | 6.98e-05 ± 9.4e-06 s⁻¹ | 4.73e-05 ± 1e-05 s⁻¹ |  | 7.85e-05 ± 7.5e-06 s⁻¹ |  | 5.08e-05 ± 7.5e-06 s⁻¹ | 3.51e-05 ± 1.2e-05 s⁻¹ |
| G35A G40C |  | < 1e-05 s⁻¹ | < 1e-05 s⁻¹ | < 1e-05 s⁻¹ |  | < 1e-05 s⁻¹ | < 1e-05 s⁻¹ |
| A33G G63A U65G |  |  | < 1e-05 s⁻¹ |  |  |  |  |
| G37U G60A |  |  | < 1e-05 s⁻¹ |  |  | < 1e-05 s⁻¹ |  |
| A12U U55G |  | 0.00928 ± 0.0023 s⁻¹ | 0.00298 ± 0.00031 s⁻¹ | 0.119 ± 0.048 s⁻¹ | 104 ± 42 µM | 0.0105 ± 0.0021 s⁻¹ | 0.00618 ± 0.0009 s⁻¹ |
| U47G U54G | 0.0073 ± 0.0022 s⁻¹ | 0.0063 ± 0.0018 s⁻¹ | 0.00053 ± 8.3e-05 s⁻¹ | 0.00685 ± 0.0015 s⁻¹ | 724 ± 320 µM | 0.00367 ± 0.00086 s⁻¹ | 0.000915 ± 0.00023 s⁻¹ |
| G41U G59U |  |  | < 1e-05 s⁻¹ |  |  | < 1e-05 s⁻¹ | < 1e-05 s⁻¹ |
| C16U G40C | 0.00242 ± 0.00035 s⁻¹ | 0.00184 ± 0.00021 s⁻¹ | 0.00011 ± 1.1e-05 s⁻¹ | 0.00227 ± 0.00027 s⁻¹ | 1020 ± 220 µM | 0.000837 ± 8.6e-05 s⁻¹ | 0.000291 ± 3.7e-05 s⁻¹ |
| C11U A33C A52G C67A |  |  | < 1e-05 s⁻¹ |  |  |  |  |
| G37A A39U A42G C50U |  |  | < 1e-05 s⁻¹ | < 1e-05 s⁻¹ |  | < 1e-05 s⁻¹ |  |
| U30G A36G |  | < 1e-05 s⁻¹ | < 1e-05 s⁻¹ | < 1e-05 s⁻¹ |  | < 1e-05 s⁻¹ | < 1e-05 s⁻¹ |
